{"source": "patent US12258605B2", "about": "“Alkane oxidation by modified hydroxylases” (The California Institute of Technology, priority 2005, dated 2025)", "key": {"[1]": {"assay": "High-throughput dimethyl ether (DME) screen", "assay_type": "biochemical", "conditions": "relative to 35-E11; normalized to P450 concentration", "protocol": "Cell lysates for high throughput screening were prepared as described previously (Peters et al., J. Am. Chem. Soc. 125:13442 (2003); incorporated by reference herein). High-throughput dimethyl ether (DME) screens were performed in 96 well plates as described previously. Improved mutants were selected based on an increased signal compared to 9-10A (for the saturation mutagenesis libraries) and 1-12G (for the recombination library). Reactions on octane and propane were analyzed by gas chromatography as described.\nLibraries of mutants of 35-E11 were screened for phenotypes indicative of either increased product formation on small gaseous substrates slightly larger than methane. Additionally, they were screened for increased coupling of the consumption of NADPH reducing equivalents to product formation. Product formation was determined by measuring total amount of dimethyl ether hydroxylation while increased coupling was determined primarily by decreased background NADPH consumption rates (measured spectrophotometrically at 340 nm in the absence of substrate).\nThe relative dimethyl ether (DME) activity was measured, 1 hour after treatment with Purpald, as the average net and absorbance at 550 nm from 8 microtitre plate DME reactions of the mutant compared to 8 equivalent reactions of 35-E11. All values were normalized by measuring the P450 concentration in each well with CO binding. “Asteriks” indicate criteria used to select mutants from libraries for further characterization. The oxidation rate is measured as absorbance change at 340 nm over 1 minute upon the addition of NADPH to 8 microtitre plate wells containing P450-containing cell lysate and compared to 8 equivalent reactions of 35-E11. All values were normalized by measuring the P450 concentration in each well with CO binding. The total turnover number (TTN) was measured as the absorbance at 550 nm of methane reactions with each mutant after treatment with alcohol oxidase and\nScreening libraries by spectroscopically monitoring NADPH consumption rates in the presence of the alkane often selects for mutants with NADPH oxidation rates highly uncoupled to product formation. This can be overcome through the use of surrogate substrates that mimic desired substrates, yet yield species when hydroxylated that are easily detected either directly or with the addition of a dye. For example, the screen for the high-throughput identification of mutant BM-3 enzymes with activity towards propane as described previously uses dimethyl ether (DME) as a propane surrogate substrate. Upon hydroxylation, it decomposes into methanol and dye-sensitive formaldehyde. In addition, hexyl methyl ether (HME) may be used as a surrogate for octane. It shares most of the physical properties of octane, including solubility in buffer, size, shape, and strength of its C—H bonds. When HME is hydroxylated at its methoxy carbon, it also produces an equivalent of formaldehyde which is visually detected at concentrations as low as 10 μM with the dye Purpald (see FIG. 25). Hexanal, the aldehyde product formed when the α-carbon of the hexyl group is hydroxylated, is practically unreactive towards Purpald at some concentrations used in the present screens. Formaldehyde is approximately 42 times more sensitive to Purpald than hexanal (see FIG. 26). This disproportionate response makes HME, in contrast to the symmetric ether DME, a regio-selective screen for terminal alkane hydroxylation.\nHigh-throughput screening. Single colonies were picked and inoculated by a Qpix robot (Genetix, Beaverton, OR) into 1-mL, deep-well plates containing LB (Amp*) medium (400 μL). The plates were incubated at 30° C., 250 rpm, and 80% relative humidity. After 24 h, 50 μL from this pre-culture were used to inoculate a 2-mL, deep-well plates containing […] TB (Amp^+) medium per well. Cultures were grown at 37° C., 220 rpm, and 80% relative humidity. […]"}, "[2]": {"assay": "Chloromethane dehalogenation (Purpald detection of formaldehyde)", "assay_type": "biochemical", "conditions": "for colorimetric response (Purpald): chloromethane, cofactor regeneration system", "text": "The dehalogenation reaction is based on the hydroxylation of the carbon atom carrying the halogen by a spontaneous (base catalyzed) alpha-elimination reaction which leads to the formation of an aldehyde or ketone depending on the starting haloalkane. The expected reaction mechanism for the dehalogenation of a general alpha-haloalkane is described by the scheme:\nTo test the feasibility of this approach, chloromethane was chosen as substrate for the dehalogenation reaction. Compared to other haloalkanes, chloromethane (CM) has the advantage to be moderately soluble in water (0.5 g/100 ml) and to lead to formaldehyde as end product of the hydroxylation/alpha-elimination reaction. Formaldehyde can be then readily detected by colorimetric reaction with Purpald as described previously. To test the reaction, two BM-3 mutants from later rounds of random mutagenesis, 35-E1141 and 20-D3, were incubated in the presence of CM and a cofactor regeneration system based on NADP^+, glucose-6-phosphate and glucose-6-phosphate dehydrogenase. Reactions with wild-type P450 BM-3 and without enzyme were included as controls.\nThe reaction was repeated in the presence of additional BM-3 mutants, including 1-8H, 1-12G2 and the wild-type P450 BM-3 in which A328 was substituted with valine (BM-3-A328V) (FIG. 27B). […] Wild-type BM-3 was substituted with other amino acid residues at position […].\nThe activity of BM-3-A328V on CM and other substrates such as HME, DME, and propane was further investigated by measuring product formation rate, cofactor consumption and coupling efficiency (Table 14). This mutant was also found to be capable to hydroxylate ethane to ethanol, although only for a total of about 5-10 turnovers. In Table 14 “consumption” rates are expressed as nmol NADPH/nmol enzyme/min and “product formation” rates are expressed as nmol product/nmol enzyme/min."}}, "note": "Marks after values point to notes of the source that are not given here."}
{"molecule": "35-E11: P450 BM-3 variant, SEQ ID NO:7: 53-5H substitutions plus E464G and I710T (protein, mutant P450 35-E11 protein sequence) TIKEMPQPKTFGELKNLPLLNTDKPVQALMKIADELGEIFKFEAPGCVTRYLSSQRLIKEACDESRFDKNLSQALKFFRDFSGDGLFTSWTHEINWKKAHNILLPSFSQQAMKGYHAMMVDIAVQLVQKWERLNADEHIEVSEDMTRLTLDTIGLCGFNYRFNSFYRDQPHPFIISMVRALDEVMNKLQRANPDDPAYDENKRQCQEDIKVMNDLVDKIIADRKARGEQSDDLLTQMLNGKDPETGEPLDDGNISYQIITFLIAGHETTSGLLSFALYFLVKNPHVLQKVVEEAARVLVDPVPSYKQVKQLKYVGMVLNEALRLWPTFPAFSLYAKEDTVLGGEYPLEKGDEVMVLIPQLHRDKTIWGDDVEEFRPERFENPSAIPQHAFKPFGNGQRACIGQQFALHEATLVLGMMLKHFDFEDHTNYELDIKETLTLKPEGFVVKAKSKKIPLGGIPSPSTGQSAKKVRKKAENAHNTPLLVLYGSNMGTAEGTARDLADIAMSKGFAPQVATLDSHAGNLPREGAVLIVTASYNGHPPDNAKQFVDWLDQASADEVKGVRYSVFGCGDKNWATTYQKVPAFIDETLAAKGAENIADRGEADASDDFEGTYEEWREHMWSDVAAYFNLDIENSEDNKSTLSLQFVDSAADMPLAKMHGAFSTNVVASKELQQPGSARSTRHLEIELPKEASYQEGDHLGVIPRNYEGTVNRVTARFGLDASQQIRLEAEEEKLAHLPLAKTVSVEELLQYVELQDPVTRTQLRAMAAKTVCPPHKVELEALLEKQAYKEQVLAKRLTMLELLEKYPACEMKFSEFIALLPSIRPRYYSISSSPRVDEKQASITVSVVSGEAWSGYGEYKGIASNYLAELQEGDTITCFISTPQSEFTLPKDPETPLIMVGPGTGVAPFRGFVQARKQLKEQGQSLGEAHLYFGCRSPHEDYLYQEELENAQSEGIITLHTAFSRMPNQPKTYVQHVMEQDGKKLIELLDQGAHFYICGDGSQMAPAVEATLMKSYADVHQVSEADARLWLQQLEEKGRYAKDVWAG", "values": [{"measurement": "Relative DME activity in screen", "setting": "[1]", "result": 1}, {"measurement": "colorimetric response (Purpald)", "setting": "[2]", "result": "specific colorimetric response"}]}
{"molecule": "20-D3: P450 BM-3 variant, SEQ ID NO:11; 35-E11 plus H285R (protein, mutant P450 20-D3 protein sequence, 35-E11 plus H285R) TIKEMPQPKTFGELKNLPLLNTDKPVQALMKIADELGEIFKFEAPGCVTRYLSSQRLIKEACDESRFDKNLSQALKFFRDFSGDGLFTSWTHEINWKKAHNILLPSFSQQAMKGYHAMMVDIAVQLVQKWERLNADEHIEVSEDMTRLTLDTIGLCGFNYRFNSFYRDQPHPFIISMVRALDEVMNKLQRANPDDPAYDENKRQCQEDIKVMNDLVDKIIADRKARGEQSDDLLTQMLNGKDPETGEPLDDGNISYQIITFLIAGHETTSGLLSFALYFLVKNPRVLQKVVEEAARVLVDPVPSYKQVKQLKYVGMVLNEALRLWPTFPAFSLYAKEDTVLGGEYPLEKGDEVMVLIPQLHRDKTIWGDDVEEFRPERFENPSAIPQHAFKPFGNGQRACIGQQFALHEATLVLGMMLKHFDFEDHTNYELDIKETLTLKPEGFVVKAKSKKIPLGGIPSPSTGQSAKKVRKKAENAHNTPLLVLYGSNMGTAEGTARDLADIAMSKGFAPQVATLDSHAGNLPREGAVLIVTASYNGHPPDNAKQFVDWLDQASADEVKGVRYSVFGCGDKNWATTYQKVPAFIDETLAAKGAENIADRGEADASDDFEGTYEEWREHMWSDVAAYFNLDIENSEDNKSTLSLQFVDSAADMPLAKMHGAFSTNVVASKELQQPGSARSTRHLEIELPKEASYQEGDHLGVIPRNYEGTVNRVTARFGLDASQQIRLEAEEEKLAHLPLAKTVSVEELLQYVELQDPVTRTQLRAMAAKTVCPPHKVELEALLEKQAYKEQVLAKRLTMLELLEKYPACEMKFSEFIALLPSIRPRYYSISSSPRVDEKQASITVSVVSGEAWSGYGEYKGIASNYLAELQEGDTITCFISTPQSEFTLPKDPETPLIMVGPGTGVAPFRGFVQARKQLKEQGQSLGEAHLYFGCRSPHEDYLYQEELENAQSEGIITLHTAFSRMPNQPKTYVQHVMEQDGKKLIELLDQGAHFYICGDGSQMAPAVEATLMKSYADVHQVSEADARLWLQQLEEKGRYAKDVWAG", "values": [{"measurement": "Relative DME activity in screen", "setting": "[1]", "result": "1.7*"}, {"measurement": "colorimetric response (Purpald)", "setting": "[2]", "result": "specific colorimetric response"}]}
{"molecule": "Wild-type BM-3: wild-type cytochrome P450 BM-3 from Bacillus megaterium, SEQ ID NO:1 (protein, listed as Bacillus megaterium) TIKEMPQPKTFGELKNLPLLNTDKPVQALMKIADELGEIFKFEAPGRVTRYLSSQRLIKEACDESRFDKNLSQALKFVRDFAGDGLFTSWTHEKNWKKAHNILLPSFSQQAMKGYHAMMVDIAVQLVQKWERLNADEHIEVPEDMTRLTLDTIGLCGFNYRFNSFYRDQPHPFITSMVRALDEAMNKLQRANPDDPAYDENKRQFQEDIKVMNDLVDKIIADRKASGEQSDDLLTHMLNGKDPETGEPLDDENIRYQIITFLIAGHETTSGLLSFALYFLVKNPHVLQKAAEEAARVLVDPVPSYKQVKQLKYVGMVLNEALRLWPTAPAFSLYAKEDTVLGGEYPLEKGDELMVLIPQLHRDKTIWGDDVEEFRPERFENPSAIPQHAFKPFGNGQRACIGQQFALHEATLVLGMMLKHFDFEDHTNYELDIKETLTLKPEGFVVKAKSKKIPLGGIPSPSTEQSAKKVRKKAENAHNTPLLVLYGSNMGTAEGTARDLADIAMSKGFAPQVATLDSHAGNLPREGAVLIVTASYNGHPPDNAKQFVDWLDQASADEVKGVRYSVFGCGDKNWATTYQKVPAFIDETLAAKGAENIADRGEADASDDFEGTYEEWREHMWSDVAAYFNLDIENSEDNKSTLSLQFVDSAADMPLAKMHGAFSTNVVASKELQQPGSARSTRHLEIELPKEASYQEGDHLGVIPRNYEGIVNRVTARFGLDASQQIRLEAEEEKLAHLPLAKTVSVEELLQYVELQDPVTRTQLRAMAAKTVCPPHKVELEALLEKQAYKEQVLAKRLTMLELLEKYPACEMKFSEFIALLPSIRPRYYSISSSPRVDEKQASITVSVVSGEAWSGYGEYKGIASNYLAELQEGDTITCFISTPQSEFTLPKDPETPLIMVGPGTGVAPFRGFVQARKQLKEQGQSLGEAHLYFGCRSPHEDYLYQEELENAQSEGIITLHTAFSRMPNQPKTYVQHVMEQDGKKLIELLDQGAHFYICGDGSQMAPAVEATLMKSYADVHQVSEADARLWLQQLEEKGRYAKDVWAG", "values": [{"measurement": "total turnover number on CM", "setting": "[2]; compared with the other mutants of the study", "result": "no detectable activity"}]}
